Data: patent US20240067748A1 (NONA BIOSCIENCES SUZHOU, published 2024)

T1: human Trop2 on cells (human, UniProt P09758 27-323)
T1 construct: whole, on cells; also called hTrop2; 293T-human Trop2 cells
T1 sequence (looked up): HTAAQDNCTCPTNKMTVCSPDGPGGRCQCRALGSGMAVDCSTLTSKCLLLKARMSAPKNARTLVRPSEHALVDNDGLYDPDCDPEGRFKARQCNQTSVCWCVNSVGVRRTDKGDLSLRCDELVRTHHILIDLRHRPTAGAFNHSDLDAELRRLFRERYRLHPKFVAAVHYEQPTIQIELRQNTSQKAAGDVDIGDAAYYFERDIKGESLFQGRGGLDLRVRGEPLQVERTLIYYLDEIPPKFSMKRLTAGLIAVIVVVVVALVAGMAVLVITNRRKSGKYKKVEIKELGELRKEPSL

T2: monkey Trop2 protein (Sino Biological, #90893-C08H) (monkey, UniProt A0A2K5UE71 27-274)
T2 construct: bought protein; also called monkey Trop2 protein antigen (His tag)
T2 sequence: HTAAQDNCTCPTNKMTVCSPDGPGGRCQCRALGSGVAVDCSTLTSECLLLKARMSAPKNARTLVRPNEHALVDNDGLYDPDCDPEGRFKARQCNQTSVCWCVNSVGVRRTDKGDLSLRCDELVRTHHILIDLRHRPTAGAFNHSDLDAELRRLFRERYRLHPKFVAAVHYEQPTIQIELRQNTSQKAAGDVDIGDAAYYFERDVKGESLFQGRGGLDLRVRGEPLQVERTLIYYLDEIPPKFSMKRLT

T3: human TROP2 protein (Sino Biological, #10428-H08H) (human, UniProt P09758 27-274)
T3 construct: bought protein; also called human Trop2 protein antigen (His tag); not shown: His tag
T3 sequence (looked up): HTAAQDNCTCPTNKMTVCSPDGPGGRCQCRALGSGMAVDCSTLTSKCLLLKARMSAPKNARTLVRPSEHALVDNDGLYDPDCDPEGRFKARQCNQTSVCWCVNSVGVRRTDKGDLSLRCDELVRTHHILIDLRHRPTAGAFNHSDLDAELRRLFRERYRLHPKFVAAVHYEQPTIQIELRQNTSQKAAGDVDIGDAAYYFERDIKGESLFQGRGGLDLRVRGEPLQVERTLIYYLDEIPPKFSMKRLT


What was measured:
[1] = biological target: T1, human Trop2 on cells; assay: flow cytometry on 293T-human Trop2 cells
Procedure: The cell density was determined, and the cells were resuspended to 1×10⁶ cells/mL in PBS. 100 μL of cell suspension was taken from each well and added to a 96 well V-bottom plate. The 96-well V-bottom plate was centrifuged at 1000 rpm for 5 min and washed once with PBS+0.5% BSA (VWR, #0332-100G). […] After 1 h, the cells were washed twice with PBS+0.5% BSA. The cells were incubated with 100 μL of Alexa Fluor 488 goat anti-human IgG (Life technologies, 1:1000, #A-11013) at 4° C. for 1 h in the dark, and washed twice with PBS+0.5% BSA. The cells were resuspended in 200 μL of PBS+0.5% BSA. The fluorescence intensity of the cells was analyzed using a FACS verse flow cytometer. All procedures were performed on ice.

[2] = biological target: T2, monkey Trop2 protein (Sino Biological, …); assay: BLI, Octet RED96; ratio against KD for human Trop2 protein
Procedure: (§1) Specifically, a human TROP2 protein (Sino Biological, #10428-H08H) or a monkey Trop2 protein (Sino Biological, #90893-C08H) was diluted to 200 nM with a PBS buffer (pH 7.4) containing 0.1% (w/w) BSA and 0.02% (v/v) tween 20, and incubated with the AHC sensor respectively. 40 nM Trop2 antibody was incubated at 30° C. for 3 min with the AHC sensor loaded with the human Trop2 protein or monkey Trop2 protein respectively. The reaction mixture was incubated at 30° C. for another 5 min in a PBS buffer (pH 7.4) containing 0.1% (v/w) BSA and 0.02% (v/v) Tween 20. The association and dissociation signals between the Trop2 antibody and the human Trop2 protein or monkey Trop2 protein were recorded by Octet Red 96 in real time. The affinity and the association and dissociation constants were determined by Octet using software.

[3] = biological target: T3, human TROP2 protein (Sino Biological, …); assay: BLI, Octet RED96, AHC sensor
Procedure: as §1

[4] = biological target: T2, monkey Trop2 protein (Sino Biological, …); assay: BLI, Octet RED96, AHC sensor
Procedure: as §1

Row | Binder | EC50 [1] [nM] | Maximum (MFI) [1] [MFI] | Top % [1] [%] | KD (monkey)/KD (human) [2] | Kd [3] [nM] | Response [3] | koff [3] [s⁻¹] | kon [3] [M⁻¹ s⁻¹] | Kd [4] [nM] | Response [4] | koff [4] [s⁻¹] | kon [4] [M⁻¹ s⁻¹]
1 | PR001145 (antibody, human IgG1, kappa, V domains shown, fully human IgG1/kappa; also called antibody No. (11)) VH: QVQLVESGGGVVQPGRSLRLSCAASGFTFSSFGMQWVRQGPGKGLEWVAIMWFDGSNKYYVDSVKGRFTISRDNSKNTLYLQMNSLRAEDTAVYYCARLDFSGWPLIDYWGQGTLVTVSS VL: not shown | 0.48 | 7030 | 108 | 1.3 | 14.7 | 0.29 | 0.00135 | 91900 | 19.1 | 0.277 | 0.00134 | 70100
2 | PR001147 (antibody, human IgG1, kappa, V domains shown, fully human IgG1/kappa; also called antibody No. (12)) VH: QVNLVESGGGVVQPGRSLKLSCAASGFTFSSYGMHWVRQAPGKGLEWVAFIWSDGTNRYYPESVKGRFTISRDDSRNTVSLQMNSLRPEDTAVYYCARDGWGTYGEYFQHWGQGTLVTVSS VL: not shown | 1.31 | 7420 | 115 | 3.86 | 0.498 | 0.349 | 4.23e-05 | 85000 | 1.92 | 0.341 | 0.000117 | 60900
3 | PR001134 (antibody, human IgG1, kappa, V domains shown, fully human IgG1/kappa; also called antibody No. (6)) VH: QVQLVESGGGVVQPGRSLRVSCIASGFFFSSYGMHWVRQAPGKGLEWVAVIWYDGSNEDYVDSVKGRFTISRDNSKNTLYLQMNSLRGEDTAMYYCARGGYNSGWWAFDIWGQGTMVTVSS VL: DIQMTQSPSSLSASVGDRVTITCRASQGISHFLAWYQQKPGKVPKLLIYAASTLQSGVPSRFSGSGSGTDFTLTISSLQPEDVATYYCQKFNSAPLTFGGGTKVEIKR | 0.653 | 6040 | 93.2 | 1.72 | 5.42 | 0.354 | 0.000451 | 83100 | 9.33 | 0.335 | 0.000512 | 54900
4 | PR001160 (antibody, human IgG1, kappa, V domains shown, fully human IgG1/kappa; also called antibody No. (22)) VH: QVQLVESGGGVVQPGRSLRLSCEASGFTFSHYGMHWVRQAPGKGLEWVAVIWYDGIMKNYIESVKGRFTISRDNSKNTLYLQMNRLRAEDTAVYYCARDGGFGELNYYGLDVWGQGTTVTVSS VL: DIQLTQSPSFLSASVGDRVTITCRASQGISSYLGWYQQKPGKAPKLLIYVASTLQSGVPSRFSGSGSGTEFTLTISSLQPEDFATYYCQQLNSYPYTFGQGTKLEIKR | 1.22 | 6710 | 104 | 2.22 | 0.819 | 0.39 | 9.48e-05 | 116000 | 1.82 | 0.36 | 0.000135 | 74300
5 | PR001163 (antibody, human IgG1, kappa, V domains shown, fully human IgG1/kappa; also called antibody No. (24)) VH: QVQLVESGGDVVQPGRSLRLSCEASGFTFSHYGMHWVRQAPGKGLEWVAVVWYDGIKKYYVESVKGRFTISRDNSKNTLYLQMNRLRAEDTAVYYCARDGGFGELNYYGLDVWGQGTTVTVSS VL: DIQLTQSPSFLSASVGDRVTITCRASQGISSYLGWYQQKPGKAPKLLIYVASTLQSGVPSRFSGSGSGTEFTLTISSLQPEDFATYYCQQLNSYPYTFGQGTKLEIKR | 0.496 | 5990 | 92.4 | 2.48 | 0.79 | 0.396 | 8.34e-05 | 106000 | 1.96 | 0.372 | 0.000134 | 68400
